Target: ACE2-Fc fusion protein (extracellular domain of human ACE2 and the Fc region of human IgG1) (human) (UniProt Q9BYF1)
Test: ELISA

Sequence of ACE2-Fc fusion protein (extracellular domain of human ACE2 and the Fc region of human IgG1) (human) (Q9BYF1 18-740): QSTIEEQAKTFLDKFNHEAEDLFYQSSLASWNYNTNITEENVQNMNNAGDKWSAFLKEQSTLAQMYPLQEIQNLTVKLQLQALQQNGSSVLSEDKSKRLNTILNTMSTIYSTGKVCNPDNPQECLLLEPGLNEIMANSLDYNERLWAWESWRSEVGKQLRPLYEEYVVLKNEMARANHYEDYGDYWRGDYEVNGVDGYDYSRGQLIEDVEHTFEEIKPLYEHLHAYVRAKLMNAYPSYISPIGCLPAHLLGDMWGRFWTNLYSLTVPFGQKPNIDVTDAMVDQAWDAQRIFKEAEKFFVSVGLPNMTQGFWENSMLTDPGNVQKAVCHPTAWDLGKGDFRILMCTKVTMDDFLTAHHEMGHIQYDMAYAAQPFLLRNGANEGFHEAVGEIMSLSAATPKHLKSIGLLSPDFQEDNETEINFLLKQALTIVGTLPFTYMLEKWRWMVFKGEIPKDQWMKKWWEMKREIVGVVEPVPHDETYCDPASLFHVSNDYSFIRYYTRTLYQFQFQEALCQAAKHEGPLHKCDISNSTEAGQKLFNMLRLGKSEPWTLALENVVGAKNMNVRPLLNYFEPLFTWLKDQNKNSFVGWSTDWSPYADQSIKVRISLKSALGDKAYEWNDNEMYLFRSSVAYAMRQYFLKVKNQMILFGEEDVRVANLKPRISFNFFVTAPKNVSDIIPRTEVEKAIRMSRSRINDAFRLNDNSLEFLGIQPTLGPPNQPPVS
Sequence of recombinant S1-subunit or RBD of HCoV-NL63 (domain or fragment) (Q6Q1S2 19-717 limits assumed): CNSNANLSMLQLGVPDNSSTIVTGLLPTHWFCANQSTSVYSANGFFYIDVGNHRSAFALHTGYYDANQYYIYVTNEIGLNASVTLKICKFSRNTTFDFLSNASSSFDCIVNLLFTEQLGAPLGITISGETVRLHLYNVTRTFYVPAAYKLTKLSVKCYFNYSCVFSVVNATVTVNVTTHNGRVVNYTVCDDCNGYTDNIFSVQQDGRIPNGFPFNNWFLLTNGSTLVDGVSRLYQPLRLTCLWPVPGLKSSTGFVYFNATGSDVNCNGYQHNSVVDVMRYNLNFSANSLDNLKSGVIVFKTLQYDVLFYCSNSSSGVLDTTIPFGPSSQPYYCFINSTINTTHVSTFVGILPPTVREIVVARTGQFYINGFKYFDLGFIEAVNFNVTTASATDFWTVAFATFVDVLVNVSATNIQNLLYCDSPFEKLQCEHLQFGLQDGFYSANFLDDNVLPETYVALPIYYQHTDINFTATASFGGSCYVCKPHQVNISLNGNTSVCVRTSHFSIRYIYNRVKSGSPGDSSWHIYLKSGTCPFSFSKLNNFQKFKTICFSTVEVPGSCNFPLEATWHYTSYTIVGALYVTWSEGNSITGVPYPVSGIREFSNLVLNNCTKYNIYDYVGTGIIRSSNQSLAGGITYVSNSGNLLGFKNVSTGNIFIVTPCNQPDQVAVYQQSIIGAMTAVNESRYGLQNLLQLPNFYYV

| Substance | EC50 |
| --- | --- |
| recombinant S1-subunit or RBD of HCoV-NL63 (domain or fragment) | 24.2 nM |
| recombinant S1-subunit or RBD of SARS-CoV (domain or fragment) | 1.1 nM |
| recombinant S1-subunit or RBD of SARS-CoV-2 (domain or fragment) | 11.8 nM |
